According to paper PMC9482650, “Quantitative fragmentomics allow affinity mapping of interactomes” (Nature Communications, 2022):
Positions count from the first letter of the chain named.

How the values were obtained:
Assay in all cases: holdup assay
Parameters in all cases: key: below the threshold = too weak to quantify, mostly under pKd 3.1 to 4
[1] = biological target: GRIP2_5, Q9C0E4
[2] = biological target: T1, CARD11, Q9BXL7
T1 sequence (Q9BXL7 662-765, limits assumed, looked up): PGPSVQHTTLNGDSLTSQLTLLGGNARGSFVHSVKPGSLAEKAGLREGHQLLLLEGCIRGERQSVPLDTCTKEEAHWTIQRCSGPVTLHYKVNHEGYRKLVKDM

[3] = biological target: MAGI2_3, Q86UL8
Sequence of MAGI2_3, Q86UL8 (Q86UL8 600-682): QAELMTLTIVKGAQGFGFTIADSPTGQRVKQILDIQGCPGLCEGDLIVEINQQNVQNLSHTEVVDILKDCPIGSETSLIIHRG

[4] = biological target: T2, LIN7C, Q9NUP9
T2 sequence (Q9NUP9 88-185, limits assumed, looked up): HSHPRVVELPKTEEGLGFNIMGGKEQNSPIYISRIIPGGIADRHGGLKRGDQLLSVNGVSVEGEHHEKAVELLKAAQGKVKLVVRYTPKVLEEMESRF

[5] = biological target: T3, MPP6, Q9NZW5
T3 sequence (Q9NZW5 125-219, limits assumed, looked up): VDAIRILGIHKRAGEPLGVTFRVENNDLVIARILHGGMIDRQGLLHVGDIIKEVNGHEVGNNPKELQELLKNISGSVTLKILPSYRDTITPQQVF

[6] = biological target: T4, DFNB31_3, Q9P202
T4 sequence (Q9P202 811-907, limits assumed, looked up): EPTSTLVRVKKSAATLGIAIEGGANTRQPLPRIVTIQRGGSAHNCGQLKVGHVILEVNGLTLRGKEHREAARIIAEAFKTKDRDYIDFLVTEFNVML

[7] = biological target: PDLIM1, O00151
Sequence of PDLIM1, O00151 (O00151 1-87): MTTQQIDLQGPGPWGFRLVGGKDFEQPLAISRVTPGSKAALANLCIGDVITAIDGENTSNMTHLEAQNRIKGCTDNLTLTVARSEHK

[8] = biological target: FRMPD2_1, Q68DX3
Sequence of FRMPD2_1, Q68DX3 (Q68DX3 770-861): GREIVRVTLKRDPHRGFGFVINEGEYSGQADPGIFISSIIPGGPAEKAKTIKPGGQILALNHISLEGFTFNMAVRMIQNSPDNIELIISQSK

[9] = biological target: GOPC, Q9HD26
[10] = biological target: T5, FRMPD1, Q5SYB0
T5 sequence (Q5SYB0 52-145, limits assumed, looked up): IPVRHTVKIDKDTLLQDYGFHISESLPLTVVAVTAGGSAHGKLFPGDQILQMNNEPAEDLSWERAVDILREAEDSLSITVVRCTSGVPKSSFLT

[11] = biological target: MAGI1_1, Q96QZ7
Sequence of MAGI1_1, Q96QZ7 (Q96QZ7 1-106): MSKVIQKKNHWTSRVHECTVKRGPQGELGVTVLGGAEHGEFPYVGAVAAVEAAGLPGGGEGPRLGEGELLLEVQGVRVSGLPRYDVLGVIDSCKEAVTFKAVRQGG

[12] = biological target: T6, APBA1_1, Q02410
T6 sequence (Q02410 651-752, limits assumed, looked up): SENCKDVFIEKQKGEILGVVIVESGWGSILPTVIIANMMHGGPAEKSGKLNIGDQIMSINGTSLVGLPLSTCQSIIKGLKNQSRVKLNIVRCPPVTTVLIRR

[13] = biological target: T7, LIN7A, O14910
T7 sequence (O14910 103-200, limits assumed, looked up): T2 sequence (Q9NUP9 88-185, limits assumed, looked up) with E13D, I20V, I40V, D42E, Q77K, G78D, K79S, S96A

[14] = biological target: T8, NHERF3_3, Q5T2W1
T8 sequence (Q5T2W1 238-333, limits assumed, looked up): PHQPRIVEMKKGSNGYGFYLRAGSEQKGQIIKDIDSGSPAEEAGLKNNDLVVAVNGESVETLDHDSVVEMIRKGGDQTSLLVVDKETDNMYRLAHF

[15] = biological target: FRMPD2_2, Q68DX3
Sequence of FRMPD2_2, Q68DX3 (Q68DX3 944-1038): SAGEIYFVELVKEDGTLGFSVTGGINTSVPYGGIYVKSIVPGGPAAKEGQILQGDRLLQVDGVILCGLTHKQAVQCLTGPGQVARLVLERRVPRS

[16] = biological target: GRIP2_6, Q9C0E4
Sequence of GRIP2_6, Q9C0E4 (Q9C0E4 648-740): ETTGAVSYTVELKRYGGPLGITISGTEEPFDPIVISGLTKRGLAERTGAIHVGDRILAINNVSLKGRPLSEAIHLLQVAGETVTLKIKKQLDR

[17] = biological target: FRMPD4, Q14CM0
Sequence of FRMPD4, Q14CM0 (Q14CM0 67-160): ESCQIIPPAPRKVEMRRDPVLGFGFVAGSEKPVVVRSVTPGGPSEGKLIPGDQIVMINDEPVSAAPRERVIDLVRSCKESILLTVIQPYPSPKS

[18] = biological target: LNX1_2, Q8TBB1
Sequence of LNX1_2, Q8TBB1 (Q8TBB1 371-470): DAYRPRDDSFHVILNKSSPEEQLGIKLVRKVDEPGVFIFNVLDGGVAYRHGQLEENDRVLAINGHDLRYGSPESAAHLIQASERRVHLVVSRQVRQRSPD

[19] = biological target: Inadl_9, Q8NI35
Sequence of Inadl_9, Q8NI35 (Q8NI35 1530-1615): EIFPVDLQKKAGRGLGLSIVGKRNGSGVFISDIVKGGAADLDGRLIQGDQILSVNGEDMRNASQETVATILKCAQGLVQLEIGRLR

[20] = biological target: DLG4_2, P78352
Sequence of DLG4_2, P78352 (P78352 155-259): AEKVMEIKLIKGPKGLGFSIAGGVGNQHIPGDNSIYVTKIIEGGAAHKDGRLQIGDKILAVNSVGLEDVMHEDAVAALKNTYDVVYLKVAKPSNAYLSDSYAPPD

[21] = biological target: T9, PDZD2_2, O15018
T9 sequence (O15018 329-429, limits assumed, looked up): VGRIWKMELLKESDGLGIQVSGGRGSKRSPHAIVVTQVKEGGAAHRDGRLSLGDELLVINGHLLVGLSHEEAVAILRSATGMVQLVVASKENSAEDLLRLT

[22] = biological target: T10, MPP2, Q14168
T10 sequence (Q14168 180-250, limits assumed, looked up): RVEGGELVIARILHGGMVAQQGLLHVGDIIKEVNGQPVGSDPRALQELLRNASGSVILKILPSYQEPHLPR

[23] = biological target: T11, GRIP1_3, Q9Y3R0
T11 sequence (Q9Y3R0 247-346, limits assumed, looked up): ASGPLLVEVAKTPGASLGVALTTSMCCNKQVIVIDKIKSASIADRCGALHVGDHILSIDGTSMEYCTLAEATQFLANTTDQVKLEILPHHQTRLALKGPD

[24] = biological target: T12, GRIP1_2, Q9Y3R0
T12 sequence (Q9Y3R0 145-248, limits assumed, looked up): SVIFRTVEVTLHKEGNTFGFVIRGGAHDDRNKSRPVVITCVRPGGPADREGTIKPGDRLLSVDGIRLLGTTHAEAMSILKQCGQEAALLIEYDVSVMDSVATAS

[25] = biological target: PARD3_3, Q8TEW0
Sequence of PARD3_3, Q8TEW0 (Q8TEW0 582-685): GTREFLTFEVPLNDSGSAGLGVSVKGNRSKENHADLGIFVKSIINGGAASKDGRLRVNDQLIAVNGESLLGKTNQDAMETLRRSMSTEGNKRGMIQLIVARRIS

[26] = biological target: Inadl_10, Q8NI35
Sequence of Inadl_10, Q8NI35 (Q8NI35 1673-1763): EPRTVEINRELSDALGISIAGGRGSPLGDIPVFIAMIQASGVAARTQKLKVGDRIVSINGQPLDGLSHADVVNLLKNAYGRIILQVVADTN

[27] = plain residues with an end cap or a label only (N-terminal biotin on a linker: ttds)
[28] = plain residues with an end cap or a label only (N-terminal biotin on a linker: ahx)

Sequence of GRIP2_5, Q9C0E4 (Q9C0E4 544-642): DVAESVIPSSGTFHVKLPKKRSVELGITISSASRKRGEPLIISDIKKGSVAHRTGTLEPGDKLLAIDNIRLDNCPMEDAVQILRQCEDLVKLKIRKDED

QSARYRDTEL [TJP2, Q9UDY2]
pKd [1, 27]: below the threshold | pKd [2, 27]: below the threshold | pKd [3, 27]: below the threshold | pKd [4, 27]: below the threshold | pKd [5, 27]: below the threshold | pKd [6, 27]: below the threshold | pKd [7, 27]: 3.69 | pKd [8, 27]: below the threshold | pKd [9, 27]: below the threshold | pKd [10, 27]: below the threshold | pKd [11, 27]: 3.55 | pKd [12, 27]: below the threshold | pKd [13, 27]: below the threshold | pKd [14, 27]: below the threshold | pKd [15, 27]: below the threshold | pKd [16, 27]: below the threshold | pKd [17, 27]: 4.35 | pKd [18, 27]: 3.52 | pKd [19, 27]: below the threshold | pKd [20, 27]: 3.83 | pKd [21, 27]: below the threshold | pKd [22, 27]: below the threshold | pKd [23, 27]: below the threshold | pKd [24, 27]: below the threshold | pKd [25, 27]: 3.7 | pKd [26, 27]: below the threshold

TEAKLTETNA [MYO18A, Q92614]
pKd [1, 28]: below the threshold | pKd [2, 28]: below the threshold | pKd [3, 28]: below the threshold | pKd [4, 28]: below the threshold | pKd [5, 28]: below the threshold | pKd [6, 28]: below the threshold | pKd [7, 28]: below the threshold | pKd [8, 28]: below the threshold | pKd [9, 28]: below the threshold | pKd [10, 28]: below the threshold | pKd [11, 28]: below the threshold | pKd [12, 28]: below the threshold | pKd [13, 28]: below the threshold | pKd [14, 28]: below the threshold | pKd [15, 28]: below the threshold | pKd [16, 28]: below the threshold | pKd [17, 28]: below the threshold | pKd [18, 28]: below the threshold | pKd [19, 28]: below the threshold | pKd [20, 28]: below the threshold | pKd [21, 28]: below the threshold | pKd [22, 28]: below the threshold | pKd [23, 28]: below the threshold | pKd [24, 28]: below the threshold | pKd [25, 28]: below the threshold | pKd [26, 28]: below the threshold

IDNDTESTAL [ARHGAP17, Q68EM7]
pKd [1, 27]: below the threshold | pKd [2, 27]: below the threshold | pKd [3, 27]: below the threshold | pKd [4, 27]: below the threshold | pKd [5, 27]: below the threshold | pKd [6, 27]: below the threshold | pKd [7, 27]: below the threshold | pKd [8, 27]: below the threshold | pKd [9, 27]: 3.86 | pKd [10, 27]: below the threshold | pKd [11, 27]: below the threshold | pKd [12, 27]: below the threshold | pKd [13, 27]: below the threshold | pKd [14, 27]: below the threshold | pKd [15, 27]: below the threshold | pKd [16, 27]: below the threshold | pKd [17, 27]: 4.45 | pKd [18, 27]: below the threshold | pKd [19, 27]: below the threshold | pKd [20, 27]: below the threshold | pKd [21, 27]: 4.11 | pKd [22, 27]: below the threshold | pKd [23, 27]: below the threshold | pKd [24, 27]: below the threshold | pKd [25, 27]: below the threshold | pKd [26, 27]: below the threshold
